Like-named read-outs stand apart in the source and are kept apart here. Square brackets hold non-standard residues; d marks the D form. Ends that are not written are not given here. * marks the point of attachment. Biotin = O=C1N[C@H]2[C@H](CS[C@H]2CCCCC(=O)*)N1; hSer = N[C@@H](CCO)C(=O)O; Nle = CCCC[C@H](N)C(=O)O; Abu = CC[C@H](N)C(=O)O; Ahx = NCCCCCC(=O)O

Assay [1] has as its target T1, CDK2/cyclin A (UniProt P24941 1-298; P20248 1-432). In words: cell-based or functional assay.
Assay [2] addresses T1, CDK2/cyclin A. In words: cell-based or functional assay. This is another data set of the same source.
The target of a further assay is Cyclin A (UniProt P20248 173-432, limits assumed). In words: competitive cyclin A binding ELISA, competitor: immobilised p21 peptide.
Assay [3] deals with T2, Cyclin D1 (UniProt P24385 1-295, limits assumed). Nature of the assay: pull-down, biotinylated peptide on streptavidin-agarose; SDS-PAGE, Western blot. On the technique in general: In western blotting, separated proteins are transferred to a membrane and probed.
Text: The biotinylated peptide was pre-immobilised on streptavidin-agarose beads.
Another assay addresses T3, CDK4 (UniProt P11802 1-303).
T3 construct: also called CDK4-6×His
In words: pull-down with biotinylated peptide on streptavidin-agarose beads; SDS-PAGE, Western blot.

The next assay addresses CDK2 (UniProt P24941 1-298). Described as above.
The target of assay [4] is recombinant CDK2/cyclin A (UniProt P20248 1-432; P24941 1-298). Nature of the assay: cell-based or functional assay.
Assay [5] concerns the target T4, CDK4/Cyclin D1 complex (UniProt P11802 1-303; P24385 1-295). In words: cell-based or functional assay.
Assay [6] deals with T5, CDK2/Cyclin E complex (UniProt P24941 1-298; P24864 1-410). Nature of the assay: cell-based or functional assay.
In assay [7] the target is T2, Cyclin D1. In words: competitive ELISA: cyclin D1 binding to immobilised biotinyl-Ahx-p21(149-159).
Text: The amount of bound Cyclin D1/Cyclin A was immunodetected and quantified by Turbo-ELISA reagent (PIERCE).
Assay [8] deals with T6, CDK1/Cyclin B complex (UniProt P06493 1-297; P14635 1-433).
T6 construct: also called CDK1-6×His/Cyclin B-6×His
Nature of the assay: pull-down with immobilised peptide.

The target of another assay is cyclin B (UniProt P14635 1-433). In words: pull-down with immobilised peptide.
For assay [9], the target named is T6, CDK1/Cyclin B complex. Nature of the assay: cell-based or functional assay.
Assay [10] addresses T4, CDK4/Cyclin D1 complex. Nature of the assay: cell-based or functional assay. The source holds these as a separate data set.
The target of assay [11] is T5, CDK2/Cyclin E complex. In words: cell-based or functional assay. This is another data set of the same source.

T4 sequence (P11802 other isoform, or with tags, fused parts or gaps, chain 1 of 2): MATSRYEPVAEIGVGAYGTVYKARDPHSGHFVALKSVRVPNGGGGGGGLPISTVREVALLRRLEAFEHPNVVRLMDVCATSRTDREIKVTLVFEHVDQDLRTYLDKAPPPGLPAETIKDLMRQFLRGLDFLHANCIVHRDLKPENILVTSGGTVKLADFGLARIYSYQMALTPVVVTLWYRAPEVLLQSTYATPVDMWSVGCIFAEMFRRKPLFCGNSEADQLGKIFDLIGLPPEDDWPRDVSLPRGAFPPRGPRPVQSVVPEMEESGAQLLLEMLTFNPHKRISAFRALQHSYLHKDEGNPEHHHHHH
T4 sequence (P24385 whole entry, chain 2 of 2): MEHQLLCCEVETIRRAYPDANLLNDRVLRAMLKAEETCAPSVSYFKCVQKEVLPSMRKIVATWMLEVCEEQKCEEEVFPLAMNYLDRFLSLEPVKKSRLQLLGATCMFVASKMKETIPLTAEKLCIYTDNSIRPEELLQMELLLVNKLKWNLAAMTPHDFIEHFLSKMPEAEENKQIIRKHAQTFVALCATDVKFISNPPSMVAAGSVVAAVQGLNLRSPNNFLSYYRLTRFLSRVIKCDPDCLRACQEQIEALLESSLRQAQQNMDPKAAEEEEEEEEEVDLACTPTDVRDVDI
T6 sequence (P06493 other isoform, or with tags, fused parts or gaps, chain 1 of 2): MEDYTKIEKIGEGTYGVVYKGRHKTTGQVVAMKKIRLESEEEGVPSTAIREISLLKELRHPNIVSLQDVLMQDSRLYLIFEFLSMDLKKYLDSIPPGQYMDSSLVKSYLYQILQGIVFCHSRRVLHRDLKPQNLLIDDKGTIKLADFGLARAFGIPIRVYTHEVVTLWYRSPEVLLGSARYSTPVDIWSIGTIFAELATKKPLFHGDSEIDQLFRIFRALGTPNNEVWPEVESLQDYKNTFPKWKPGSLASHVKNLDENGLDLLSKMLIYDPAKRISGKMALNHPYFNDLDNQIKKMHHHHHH
T6 sequence (P14635 other isoform, or with tags, fused parts or gaps, chain 2 of 2): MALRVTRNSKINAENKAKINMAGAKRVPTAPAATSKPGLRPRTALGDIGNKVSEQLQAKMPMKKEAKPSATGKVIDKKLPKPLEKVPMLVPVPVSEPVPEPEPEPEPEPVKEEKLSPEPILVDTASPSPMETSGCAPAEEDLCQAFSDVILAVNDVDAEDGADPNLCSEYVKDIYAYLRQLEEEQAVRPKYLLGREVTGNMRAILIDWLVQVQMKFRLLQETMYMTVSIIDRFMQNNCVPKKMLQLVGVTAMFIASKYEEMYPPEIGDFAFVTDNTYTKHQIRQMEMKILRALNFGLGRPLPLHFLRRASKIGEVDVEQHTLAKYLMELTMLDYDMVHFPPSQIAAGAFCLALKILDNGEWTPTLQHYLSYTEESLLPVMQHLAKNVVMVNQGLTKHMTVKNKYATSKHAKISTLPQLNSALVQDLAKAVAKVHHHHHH
T2 sequence (P24385 whole entry): as the sequence (P24385 whole entry, chain 2 of 2) above
Chain of cyclin B (P14635 whole entry): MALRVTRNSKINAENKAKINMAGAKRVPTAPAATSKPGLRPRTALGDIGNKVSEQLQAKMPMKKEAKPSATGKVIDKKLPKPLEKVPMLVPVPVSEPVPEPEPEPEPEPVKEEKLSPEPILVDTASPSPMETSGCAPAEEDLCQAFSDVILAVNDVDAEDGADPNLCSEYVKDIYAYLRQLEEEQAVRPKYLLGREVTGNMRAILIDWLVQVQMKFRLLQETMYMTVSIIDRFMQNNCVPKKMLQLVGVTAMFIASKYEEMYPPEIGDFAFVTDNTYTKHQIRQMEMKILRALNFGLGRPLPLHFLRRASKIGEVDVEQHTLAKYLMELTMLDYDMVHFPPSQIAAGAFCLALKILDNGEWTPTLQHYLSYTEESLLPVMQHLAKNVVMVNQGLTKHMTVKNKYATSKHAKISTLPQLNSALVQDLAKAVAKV
T3 sequence (P11802 other isoform, or with tags, fused parts or gaps limits assumed): as the sequence (P11802 other isoform, or with tags, fused parts or gaps, chain 1 of 2) above

For the molecule H-HAKARLIF-NH2 [H-His-Ala-Lys-Ala-Arg-Leu-Ile-Phe-NH2], the “Relative activity, Kinase Inhibition (CDK2/cyclin A kinase assay, pRb substrate, [ATP] = 100 µM)” value with CDK2/cyclin A [1] was < 0.1 relative to H-His-Ala-Lys-Arg-Arg-Leu-Ile-Phe-NH2 (=1).

Take H-HAKQRLIF-NH2 [H-His-Ala-Lys-Gln-Arg-Leu-Ile-Phe-NH2]: the “Relative activity, Kinase Inhibition (CDK2/cyclin A kinase assay, pRb substrate, [ATP] = 100 µM)” value with CDK2/cyclin A [1] is < 0.1 relative to H-His-Ala-Lys-Arg-Arg-Leu-Ile-Phe-NH2 (=1).

Consider H-HAARRLIF-NH2 [H-His-Ala-Ala-Arg-Arg-Leu-Ile-Phe-NH2], for which the “Relative activity, Kinase Inhibition (CDK2/cyclin A kinase assay, pRb substrate, [ATP] = 100 µM)” value with CDK2/cyclin A [2] is < 0.1 relative to H-His-Ala-Lys-Arg-Arg-Leu-Ile-Phe-NH2 (=1).

B1: GST-pRb(772-928) (other, UniProt P06400 772-928, looked up)
chain: ASTRPPTLSPIPHIPRSPYKFPSSPLRIPGGNIYISPLKSPYKISEGLPTPTKMTPRSRILVSIGESFGTSEKFQKINQMVCNSDRVLKRSAEGSNPPKPLKKLRFDIEGSDEADGSKHLPGESKFQQKLAEMTSTRTRMQKQKMNDSMDTSNKEEK
notes: range 772-928; Limits of the pRb part are printed inconsistently; also called GST-Rb; GST-Rb(772-928); not shown: glutathione S-transferase (GST) fusion partner
Turning to B1, the IC50 with Cyclin A is 9 µM.

B2: biotinyl-Ahx-Asp-Phe-Tyr-His-Ser-Lys-Arg-Arg-Leu-Ile-Phe-NH (peptide)
peptide: Biotin-[Ahx]DFYHSKRRLIF-NH2
SMILES: CC[C@H](C)[C@H](NC(=O)[C@H](CC(C)C)NC(=O)[C@H](CCCNC(=N)N)NC(=O)[C@H](CCCNC(=N)N)NC(=O)[C@H](CCCCN)NC(=O)[C@H](CO)NC(=O)[C@H](Cc1c[nH]cn1)NC(=O)[C@H](Cc1ccc(O)cc1)NC(=O)[C@H](Cc1ccccc1)NC(=O)[C@H](CC(=O)O)NC(=O)CCCCCNC(=O)CCCC[C@@H]1SC[C@@H]2NC(=O)N[C@@H]21)C(=O)N[C@@H](Cc1ccccc1)C(N)=O
notes: immobilised on streptavidin
For the molecule B2, the binding result in the assay with Cyclin D1 [3] is reported as “binds”; with CDK4 it was “no binding”; with CDK2, “no binding”.

B3: H-His-Ala-Abu-Arg-Arg-Leu-Ile-Phe-NH2 (peptide)
peptide: H-HA[Abu]RRLIF-NH2
SMILES: CC[C@H](NC(=O)[C@H](C)NC(=O)[C@@H](N)Cc1c[nH]cn1)C(=O)N[C@@H](CCCNC(=N)N)C(=O)N[C@@H](CCCNC(=N)N)C(=O)N[C@@H](CC(C)C)C(=O)N[C@H](C(=O)N[C@@H](Cc1ccccc1)C(N)=O)[C@@H](C)CC
B3: the “Relative activity, Kinase Inhibition (CDK2/cyclin A kinase assay, pRb substrate, [ATP] = 100 µM)” value with CDK2/cyclin A [2] was 0.8 relative to H-His-Ala-Lys-Arg-Arg-Leu-Ile-Phe-NH2 (=1).

For Ac-RRLNF-NH2 [Ac-Arg-Arg-Leu-Asn-Phe-NH2], the “Kinase IC50 (µM) CyclinA/CDK2” value in assay [4] stood at 37.2 µM.

In the case of H-HALRRLIF-NH2 [H-His-Ala-Leu-Arg-Arg-Leu-Ile-Phe-NH2], the “Relative activity, Kinase Inhibition (CDK2/cyclin A kinase assay, pRb substrate, [ATP] = 100 µM)” value with CDK2/cyclin A [2] was 0.1 relative to H-His-Ala-Lys-Arg-Arg-Leu-Ile-Phe-NH2 (=1).

B4: H-His-Ala-Lys-Nle-Arg-Leu-Ile-Phe-NH2 (peptide)
peptide: H-HAK[Nle]RLIF-NH2
SMILES: CCCC[C@H](NC(=O)[C@H](CCCCN)NC(=O)[C@H](C)NC(=O)[C@@H](N)Cc1c[nH]cn1)C(=O)N[C@@H](CCCNC(=N)N)C(=O)N[C@@H](CC(C)C)C(=O)N[C@H](C(=O)N[C@@H](Cc1ccccc1)C(N)=O)[C@@H](C)CC
Consider B4, for which, in the assay with CDK2/cyclin A [1], the “Relative activity, Kinase Inhibition (CDK2/cyclin A kinase assay, pRb substrate, [ATP] = 100 µM)” value was < 0.1 relative to H-His-Ala-Lys-Arg-Arg-Leu-Ile-Phe-NH2 (=1).

Turning to HSKRRLDL-NH2 [P21 C-terminus-LDL hybrid HSKRRLDL-NH2], the “% Inhibition, cyclin D1/CDK4 kinase” value with CDK4/Cyclin D1 complex [5] is 24%. Moreover, the “% Inhibition, cyclin E/CDK2 kinase” value in the assay with CDK2/Cyclin E complex [6] was found to be 74%. Further, the IC50 in the assay with Cyclin D1 [7] was > 200 µM.

As for DFYHSKRRLIFS-NH2 [p21 (149-160) DFYHSKRRLIFS-NH2], the binding result in the assay with CDK1/Cyclin B complex [8] was “no binding”. Besides, the binding result with cyclin B is “no binding”. For the same molecule, in the assay with CDK1/Cyclin B complex [9], the “IC50, CDK1-Cyclin B phosphorylation of GST-Rb” value was determined as 200 µM and the “IC50, CDK1-Cyclin B phosphorylation of Histone 1” value is > 200 µM. Besides, in the assay with CDK4/Cyclin D1 complex [10], the “% Inhibition, cyclin D1/CDK4 kinase” value turned out to be 70% and the “IC50, cyclin D1/CDK4 kinase, GST-pRb” value stood at 20 µM. In addition, in the assay with CDK2/Cyclin E complex [11], the “% Inhibition, cyclin E/CDK2 kinase” value amounted to 80% and the “IC50, cyclin E/CDK2 kinase, GST-pRb” value turned out to be 4.5 µM.

Consider DFYHSKRRLIF-NH2 [p21 (149-159) DFYHSKRRLIF-NH2], for which, in the assay with CDK1/Cyclin B complex [9], the “IC50, CDK1-Cyclin B phosphorylation of GST-Rb” value is > 200 µM. Moreover, in the assay with CDK4/Cyclin D1 complex [10], the “% Inhibition, cyclin D1/CDK4 kinase” value stood at 70% and the “IC50, cyclin D1/CDK4 kinase, GST-pRb” value came out at 13 µM. In addition, in the assay with CDK2/Cyclin E complex [11], the “% Inhibition, cyclin E/CDK2 kinase” value was 75% and the “IC50, cyclin E/CDK2 kinase, GST-pRb” value stood at 2 µM.

For the molecule PVKRRLDL-NH2 (Derived from E2F1) [E2F1 peptide PVKRRLDL-NH2], in the assay with CDK4/Cyclin D1 complex [5], the “% Inhibition, cyclin D1/CDK4 kinase” value worked out at 58% and the “IC50, cyclin D1/CDK4 kinase” value was determined as 99 µM. In addition, in the assay with CDK2/Cyclin E complex [6], the “% Inhibition, cyclin E/CDK2 kinase” value was found to be 74% and the “IC50, cyclin E/CDK2 kinase” value worked out at 2.1 µM. The IC50 in the assay with Cyclin D1 [7] is > 100 µM.

Regarding H-HARRRLIF-NH2 [H-His-Ala-Arg-Arg-Arg-Leu-Ile-Phe-NH2], the “Relative activity, Kinase Inhibition (CDK2/cyclin A kinase assay, pRb substrate, [ATP] = 100 µM)” value in the assay with CDK2/cyclin A [2] was 5.7 relative to H-His-Ala-Lys-Arg-Arg-Leu-Ile-Phe-NH2 (=1).

B5: H-His-Ala-Nle-Arg-Arg-Leu-Ile-Phe-NH2 (peptide)
peptide: H-HA[Nle]RRLIF-NH2
SMILES: CCCC[C@H](NC(=O)[C@H](C)NC(=O)[C@@H](N)Cc1c[nH]cn1)C(=O)N[C@@H](CCCNC(=N)N)C(=O)N[C@@H](CCCNC(=N)N)C(=O)N[C@@H](CC(C)C)C(=O)N[C@H](C(=O)N[C@@H](Cc1ccccc1)C(N)=O)[C@@H](C)CC
B5: the “Relative activity, Kinase Inhibition (CDK2/cyclin A kinase assay, pRb substrate, [ATP] = 100 µM)” value with CDK2/cyclin A [2] was 0.3 relative to H-His-Ala-Lys-Arg-Arg-Leu-Ile-Phe-NH2 (=1).

B6: H-His-Ala-Lys-Hse-Arg-Leu-Ile-Phe-NH2 (peptide)
peptide: H-HAK[hSer]RLIF-NH2
SMILES: CC[C@H](C)[C@H](NC(=O)[C@H](CC(C)C)NC(=O)[C@H](CCCNC(=N)N)NC(=O)[C@H](CCO)NC(=O)[C@H](CCCCN)NC(=O)[C@H](C)NC(=O)[C@@H](N)Cc1c[nH]cn1)C(=O)N[C@@H](Cc1ccccc1)C(N)=O
On to B6, for which the “Relative activity, Kinase Inhibition (CDK2/cyclin A kinase assay, pRb substrate, [ATP] = 100 µM)” value with CDK2/cyclin A [1] was < 0.1 relative to H-His-Ala-Lys-Arg-Arg-Leu-Ile-Phe-NH2 (=1).

Take H-HAKKRLIF-NH2 [H-His-Ala-Lys-Lys-Arg-Leu-Ile-Phe-NH2]: the “Relative activity, Kinase Inhibition (CDK2/cyclin A kinase assay, pRb substrate, [ATP] = 100 µM)” value with CDK2/cyclin A [1] was 0.8 relative to H-His-Ala-Lys-Arg-Arg-Leu-Ile-Phe-NH2 (=1).

As usually defined, the IC50 is the concentration that inhibits the measured activity by half.

(Values after US20040176301A1 (CYCLACEL, published 2004).)
